Measurements: patent US20180036256A1 (ALBERT LUDWIGS UNIVERSIT T FREIBURG, published 2018)
Substitutions are numbered along the chain they refer to. In names and notes the source's numbering stands. Blank lines part the entries; values can stand above or below the binder they belong to. Square brackets hold non-standard residues; d marks the D form. Ends that are not written are not given here. Lys(Me2) = CN(C)CCCC[C@H](N)C(=O)O

How the values were obtained:
CHD1aa270-443 [1] = molecular target: T1, CHD1aa270-443 (UniProt O14646 270-443); experiment: co-crystal structure of the CHD1 double chromodomain with the LSD1 K114me2 peptide
T1 construct: Recombinant fragment; also called CHD1 double chromodomain fragment
T1 sequence (looked up): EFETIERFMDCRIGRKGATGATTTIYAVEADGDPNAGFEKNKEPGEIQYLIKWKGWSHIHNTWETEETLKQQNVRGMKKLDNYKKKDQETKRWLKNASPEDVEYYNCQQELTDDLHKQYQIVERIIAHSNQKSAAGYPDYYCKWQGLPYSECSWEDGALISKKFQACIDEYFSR
Protocol: Crystals (space group P21212) were grown by sitting drop vapour diffusion at 4° C. in buffer containing 100 mM Hepes pH 7.5, 0.2 M L-proline, 10% (w/v) PEG3350. Prior to flash cooling in liquid nitrogen, crystals were cryoprotected in reservoir solution with 20% (v/v) ethylene glycol. Initial X-ray diffraction data were collected at the PXI beamline at the Swiss Light Source at 1=1.000 Å with a Pilatus detector. […] Data were processed and analyzed with XDS28 and Aimless²⁹. The structure was solved by molecular replacement with Phaser³⁰ using 2B2W as a search model. Manual building and refinement were performed using Coot31 and Refmac532 in the CCP4 program suite³³.

CHD1 D425A = molecular target: T2, CHD1 D425A (UniProt O14646 270-443, limits assumed); experiment: isothermal titration calorimetry (data not shown)
T2 construct: also called D425A mutation in CHD1
T2 sequence (looked up): T1 sequence (looked up) with D156A

Flag-LSD1 K114A = molecular target: T3, Flag-LSD1 K114A (UniProt O60341 1-852, limits assumed); experiment: co-immunoprecipitation with anti-Flag antibody from transfected 293T cells without G9A, Western blot decorated with anti-CHD1
T3 construct: Obtained by site directed mutagenesis of Flag-LSD1; not shown: Flag tag

CHD1aa270-443 [2] = molecular target: T1, CHD1aa270-443; experiment: isothermal titration calorimetry (data not shown)

B1: LSD1aa108-119 K114me2 peptide (peptide, UniProt O60341 108-119, looked up)
peptide: RRTSRR[Lys(Me2)]RAKVE
notes: range 108-119; Peptide used for co-crystallisation; only residues 110-116 were modelled in the electron density; also called LSD1aa110-116 K114me2 (residues modelled in the structure); LSD1 K114me2 peptide
binding result (CHD1aa270-443 [1]): binds

B2: LSD1aa104-127 K114me2 peptide (peptide, UniProt O60341 104-127, looked up)
peptide: TPEGRRTSRR[Lys(Me2)]RAKVEYREMDESL
notes: range 104-127; Synthetic peptide, used on the microarray and in ITC; also called LSD1 K114me2 peptide; dimethylated LSD1 peptide
binding result (CHD1 D425A): no binding

Second part, the binder after the results:

binding result (Flag-LSD1 K114A): no binding
B3: endogenous CHD1 (enzyme, human, UniProt O14646 1-1710, looked up)
chain: MNGHSDEESVRNSSGESSQSDDDSGSASGSGSGSSSGSSSDGSSSQSGSSDSDSGSESGSQSESESDTSRENKVQAKPPKVDGAEFWKSSPSILAVQRSAILKKQQQQQQQQQHQASSNSGSEEDSSSSEDSDDSSSEVKRKKHKDEDWQMSGSGSPSQSGSDSESEEEREKSSCDETESDYEPKNKVKSRKPQNRSKSKNGKKILGQKKRQIDSSEEDDDEEDYDNDKRSSRRQATVNVSYKEDEEMKTDSDDLLEVCGEDVPQPEEEEFETIERFMDCRIGRKGATGATTTIYAVEADGDPNAGFEKNKEPGEIQYLIKWKGWSHIHNTWETEETLKQQNVRGMKKLDNYKKKDQETKRWLKNASPEDVEYYNCQQELTDDLHKQYQIVERIIAHSNQKSAAGYPDYYCKWQGLPYSECSWEDGALISKKFQACIDEYFSRNQSKTTPFKDCKVLKQRPRFVALKKQPSYIGGHEGLELRDYQLNGLNWLAHSWCKGNSCILADEMGLGKTIQTISFLNYLFHEHQLYGPFLLVVPLSTLTSWQREIQTWASQMNAVVYLGDINSRNMIRTHEWTHHQTKRLKFNILLTTYEILLKDKAFLGGLNWAFIGVDEAHRLKNDDSLLYKTLIDFKSNHRLLITGTPLQNSLKELWSLLHFIMPEKFSSWEDFEEEHGKGREYGYASLHKELEPFLLRRVKKDVEKSLPAKVEQILRMEMSALQKQYYKWILTRNYKALSKGSKGSTSGFLNIMMELKKCCNHCYLIKPPDNNEFYNKQEALQHLIRSSGKLILLDKLLIRLRERGNRVLIFSQMVRMLDILAEYLKYRQFPFQRLDGSIKGELRKQALDHFNAEGSEDFCFLLSTRAGGLGINLASADTVVIFDSDWNPQNDLQAQARAHRIGQKKQVNIYRLVTKGSVEEDILERAKKKMVLDHLVIQRMDTTGKTVLHTGSAPSSSTPFNKEELSAILKFGAEELFKEPEGEEQEPQEMDIDEILKRAETHENEPGPLTVGDELLSQFKVANFSNMDEDDIELEPERNSKNWEEIIPEDQRRRLEEEERQKELEEIYMLPRMRNCAKQISFNGSEGRRSRSRRYSGSDSDSISEGKRPKKRGRPRTIPRENIKGFSDAEIRRFIKSYKKFGGPLERLDAIARDAELVDKSETDLRRLGELVHNGCIKALKDSSSGTERTGGRLGKVKGPTFRISGVQVNAKLVISHEEELIPLHKSIPSDPEERKQYTIPCHTKAAHFDIDWGKEDDSNLLIGIYEYGYGSWEMIKMDPDLSLTHKILPDDPDKKPQAKQLQTRADYLIKLLSRDLAKKEALSGAGSSKRRKARAKKNKAMKSIKVKEEIKSDSSPLPSEKSDEDDDKLSESKSDGRERSKKSSVSDAPVHITASGEPVPISEESEELDQKTFSICKERMRPVKAALKQLDRPEKGLSEREQLEHTRQCLIKIGDHITECLKEYTNPEQIKQWRKNLWIFVSKFTEFDARKLHKLYKHAIKKRQESQQNSDQNSNLNPHVIRNPDVERLKENTNHDDSSRDSYSSDRHLTQYHDHHKDRHQGDSYKKSDSRKRPYSSFSNGKDHRDWDHYKQDSRYYSDREKHRKLDDHRSRDHRSNLEGSLKDRSHSDHRSHSDHRLHSDHRSSSEYTHHKSSRDYRYHSDWQMDHRASSSGPRSPLDQRSPYGSRSPFEHSVEHKSTPEHTWSSRKT
notes: Endogenous protein in cell extracts; also called endogenously expressed CHD1

binding result (CHD1aa270-443 [2]): no binding
Binder: TPEGRRTSRA[Lys(Me2)]RAKVEYREMDESL (peptide, UniProt O60341 104-127, looked up, also called LSD1 R113A K114me2 peptide) [LSD1 K114me2 peptide with R113 mutated to alanine]
